The values that follow come from IntAct's records for PubMed 30058071.

Sequences and labels used below:
B1: SH3 and multiple ankyrin repeat domains protein 3 (Homo sapiens), Q9BYB0-1 (parent)
chain: MQLSRAAAAAAAAPAEPPEPLSPAPAPAPAPPGPLPRSAADGAPAGGKGGPGRRAESPGAPFPGASGPGPGPGAGMDGPGASAVVVRVGIPDLQQTKCLRLDPAAPVWAAKQRVLCALNHSLQDALNYGLFQPPSRGRAGKFLDEERLLQEYPPNLDTPLPYLEFRYKRRVYAQNLIDDKQFAKLHTKANLKKFMDYVQLHSTDKVARLLDKGLDPNFHDPDSGECPLSLAAQLDNATDLLKVLKNGGAHLDFRTRDGLTAVHCATRQRNAAALTTLLDLGASPDYKDSRGLTPLYHSALGGGDALCCELLLHDHAQLGITDENGWQEIHQACRFGHVQHLEHLLFYGADMGAQNASGNTALHICALYNQESCARVLLFRGANRDVRNYNSQTAFQVAIIAGNFELAEVIKTHKDSDVVPFRETPSYAKRRRLAGPSGLASPRPLQRSASDINLKGEAQPAASPGPSLRSLPHQLLLQRLQEEKDRDRDADQESNISGPLAGRAGQSKISPSGPGGPGPAPGPGPAPPAPPAPPPRGPKRKLYSAVPGRKFIAVKAHSPQGEGEIPLHRGEAVKVLSIGEGGFWEGTVKGRTGWFPADCVEEVQMRQHDTRPETREDRTKRLFRHYTVGSYDSLTSHSDYVIDDKVAVLQKRDHEGFGFVLRGAKAETPIEEFTPTPAFPALQYLESVDVEGVAWRAGLRTGDFLIEVNGVNVVKVGHKQVVALIRQGGNRLVMKVVSVTRKPEEDGARRRAPPPPKRAPSTTLTLRSKSMTAELEELASIRRRKGEKLDEMLAAAAEPTLRPDIADADSRAATVKQRPTSRRITPAEISSLFERQGLPGPEKLPGSLRKGIPRTKSVGEDEKLASLLEGRFPRSTSMQDPVREGRGIPPPPQTAPPPPPAPYYFDSGPPPAFSPPPPPGRAYDTVRSSFKPGLEARLGAGAAGLYEPGAALGPLPYPERQKRARSMIILQDSAPESGDAPRPPPAATPPERPKRRPRPPGPDSPYANLGAFSASLFAPSKPQRRKSPLVKQLQVEDAQERAALAVGSPGPGGGSFAREPSPTHRGPRPGGLDYGAGDGPGLAFGGPGPAKDRRLEERRRSTVFLSVGAIEGSAPGADLPSLQPSRSIDERLLGTGPTAGRDLLLPSPVSALKPLVSGPSLGPSGSTFIHPLTGKPLDPSSPLALALAARERALASQAPSRSPTPVHSPDADRPGPLFVDVQARDPERGSLASPAFSPRSPAWIPVPARREAEKVPREERKSPEDKKSMILSVLDTSLQRPAGLIVVHATSNGQEPSRLGGAEEERPGTPELAPAPMQSAAVAEPLPSPRAQPPGGTPADAGPGQGSSEEEPELVFAVNLPPAQLSSSDEETREELARIGLVPPPEEFANGVLLATPLAGPGPSPTTVPSPASGKPSSEPPPAPESAADSGVEEADTRSSSDPHLETTSTISTVSSMSTLSSESGELTDTHTSFADGHTFLLEKPPVPPKPKLKSPLGKGPVTFRDPLLKQSSDSELMAQQHHAASAGLASAAGPARPRYLFQRRSKLWGDPVESRGLPGPEDDKPTVISELSSRLQQLNKDTRSLGEEPVGGLGSLLDPAKKSPIAAARLFSSLGELSSISAQRSPGGPGGGASYSVRPSGRYPVARRAPSPVKPASLERVEGLGAGAGGAGRPFGLTPPTILKSSSLSIPHEPKEVRFVVRSVSARSRSPSPSPLPSPASGPGPGAPGPRRPFQQKPLQLWSKFDVGDWLESIHLGEHRDRFEDHEIEGAHLPALTKDDFVELGVTRVGHRMNIERALRQLDGS
B2: SH3 and multiple ankyrin repeat domains protein 2 (Rattus norvegicus (Rat)), Q9QX74-7 (parent)
chain: MPRSPTSSEDEMAQSFSDYSVGSESDSSKEETIYDTIRATTEKPGGVKMEDLQGNTLVIRVVIQDLQQTKCIRFNPDATVWVAKQRILCTLNQGLKDVLNYGLFQPASNGRDGKFLDEERLLREYPQPMGQGVPSLEFRYKKRVYKQSNLDEKQLARLHTKTNLKKFMDHTQHRSVEKLVKLLDRGLDPNFHDLETGETPLTLAAQLDGSMEVIKALRNGGAHLDFRSRDGMTALHKAARMRNQVALKTLLELGASPDYKDSYGLTPLYHTAIVGGDPYCCELLLHEHASVCCKDENGWHEIHQACRYGHVQHLEHLLFYGADMSAQNASGNTALHICALYNQDSCARVLLFRGGDKELKNYNSQTPFQVAIIAGNFELAEYIKNHKETDIVPFREAPAYSNRRRRPPNTLAAPRVLLRSNSDNNLNAGAPEWAVCSAATSHRSLSPQLLQQTPSKPDGATKSLGSYAPGPRSRSPSLNRLGGAGEDGKRPQPPHWHVGSPFTPGANKDSLSTFEYPGPRRKLYSAVPGRLFVAIKPYQPQVDGEIPLHRGDRVKVLSIGEGGFWEGSARGHIGWFPAECVEEVQCKPRDSQAETRADRSKKLFRHYTVGSYDSFDAASDCIIEDKTVVLQKKDNEGFGFVLRGAKADTPIEEFTPTPAFPALQYLESVDEGGVAWQAGLRTGDFLIEVNNENVVKVGHRQVVNMIRQGGNHLVLKVVTVTRNLDPDDTARKKAPPPPKRAPTTALTLRSKSMTAELEELDKPEEIVPASKPSRTAENVAIESRVATIKQRPTSRCFPAASDVNSVYERQGIAVMTPTVPGSPKGPFLGLPRGTMRRQKSIDSRIFLSGITEEERQFLAPPMLKFTRSLSMPDTSEDIPPPPQSVPPSPPPPSPTTYNCPRSPTPRVYGTIKPAFNQNPVAKVPPATRSDTVATMMREKGMFYRRELDRFSLDSEDVYSRSPAPQAAFRTKRGQMPENPYSEVGKIASKAVYVPAKPARRKGMLVKQSNVEDSPEKTCSIPIPTIIVKEPSTSSSGKSSQGSSMEIDPQATEPGQLRPDDSLTVSSPFAAAIAGAVRDREKRLEARRNSPAFLSTDLGDEDVGLGPPAPRMQPSKFPEEGGFGDEDETEQPLLPTPGAAPRELENHFLGGGEAGAQGEAGGPLSSTSKAKGPESGPAAALKSSSPASPENYVHPLTGRLLDPSSPLALALSARDRAMQESQQGHKGEAPKADLNKPLYIDTKMRPSVESGFPPVTRQNTRGPLRRQETENKYETDLSKDRRADDKKNMLINIVDTAQQKSAGLLMVHTVDIPVAGPPLEEEEDREDGDTKPDHSPSTVPEGVPKTEGALQISAAPEPAAAPGRTIVAAGSVEEAVILPFRIPPPPLASVDLDEDFLFTEPLPPPLEFANSFDIPDDRAASVPALADLVKQKKSDTPQPPSLNSSQPANSTDSKKPAGISNCLPSSFLPPPESFDAVTDSGIEEVDSRSSSDHHLETTSTISTVSSISTLSSEGGESMDTCTVYADGQAFVVDKPPVPPKPKMKPIVHKSNALYQDTLPEEDTDGFVIPPPAPPPPPGSAQAGVAKVIQPRTSKLWGDVTEVKSPILSGPKANVISELNSILQQMNRGKSVKPGEGLELPVGAKSANLAPRSPEVMSTVSGTRSTTVTFTVRPGTSQPITLQSRPPDYESRTSGPRRAPSPVVSPTELSKEILPTPPSAAAASPSPTLSDVFSLPSQSPAGDLFGLNPAGRSRSPSPSILQQPISNKPFTTKPVHLWTKPDVADWLESLNLGEHKETFMDNEIDGSHLPNLQKEDLIDLGVTRVGHRMNIERALKQLLDR

Variants of B1 are the subject of one assay. The note with it: with cac1d_human CACNA1D.
On to K555Y, for which the “effect of a mutation on the interaction” value is “with no effect”.

In another assay the parent is B2. Particulars: with cac1d_rat Cacna1d.
As for S558N, the “effect of a mutation on the interaction” value is “decreasing interaction strength”. Turning to S558D, the “effect of a mutation on the interaction” value is recorded as “with no effect”.
